Test results taken from paper PMC5173032, “A plasma proteolysis pathway comprising blood coagulation proteases” (Oncotarget, 2016).

T1: 153T-172Rdel-FXII (human, UniProt P00748 20-615, 153T-172Rdel)
T1 construct: signal peptide in the construct; source: CHO-K1, transfected (pCMV6-XL5), purified from cell lysate (Ni-NTA agarose); not shown: His6, C-terminal, kept
T1 sequence (looked up): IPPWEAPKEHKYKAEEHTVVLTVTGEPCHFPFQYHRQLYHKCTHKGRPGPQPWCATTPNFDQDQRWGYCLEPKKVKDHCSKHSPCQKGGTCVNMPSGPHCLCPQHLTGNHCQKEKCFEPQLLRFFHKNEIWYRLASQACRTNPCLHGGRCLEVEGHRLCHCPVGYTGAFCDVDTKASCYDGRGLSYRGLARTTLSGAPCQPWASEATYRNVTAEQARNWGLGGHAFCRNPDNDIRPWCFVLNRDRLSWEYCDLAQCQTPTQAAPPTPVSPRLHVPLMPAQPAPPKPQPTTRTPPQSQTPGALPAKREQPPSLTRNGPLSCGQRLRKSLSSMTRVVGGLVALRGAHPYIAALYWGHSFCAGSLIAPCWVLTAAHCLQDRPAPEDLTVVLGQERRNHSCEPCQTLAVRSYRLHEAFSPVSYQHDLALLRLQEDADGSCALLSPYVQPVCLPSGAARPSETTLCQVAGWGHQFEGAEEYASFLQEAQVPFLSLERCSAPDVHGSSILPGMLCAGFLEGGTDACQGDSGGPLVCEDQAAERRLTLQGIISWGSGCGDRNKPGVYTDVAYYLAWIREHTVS

T2: 20I-50Pdel-FXII (human, UniProt P00748 20-615, 20I-50Pdel)
T2 construct: signal peptide in the construct; source: CHO-K1, transfected (pCMV6-XL5), purified from cell lysate (Ni-NTA agarose); not shown: His6, C-terminal, kept
T2 sequence (looked up): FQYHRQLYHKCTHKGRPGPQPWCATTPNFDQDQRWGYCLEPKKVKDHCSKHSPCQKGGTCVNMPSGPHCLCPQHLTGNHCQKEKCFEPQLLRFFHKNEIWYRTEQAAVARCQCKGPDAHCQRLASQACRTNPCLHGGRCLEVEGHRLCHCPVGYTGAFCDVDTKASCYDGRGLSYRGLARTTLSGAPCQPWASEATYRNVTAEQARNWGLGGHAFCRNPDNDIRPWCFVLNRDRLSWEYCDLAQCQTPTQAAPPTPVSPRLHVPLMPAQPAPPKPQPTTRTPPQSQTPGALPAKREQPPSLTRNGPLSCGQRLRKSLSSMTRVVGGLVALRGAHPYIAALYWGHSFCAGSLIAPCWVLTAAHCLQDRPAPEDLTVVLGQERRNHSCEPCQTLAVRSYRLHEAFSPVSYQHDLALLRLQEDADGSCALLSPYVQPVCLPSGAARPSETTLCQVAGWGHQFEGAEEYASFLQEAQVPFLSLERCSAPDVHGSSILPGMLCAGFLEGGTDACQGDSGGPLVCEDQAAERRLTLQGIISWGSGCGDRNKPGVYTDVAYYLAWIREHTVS

B1: recombinant human FXII with 6XHis C-terminal tag (natural protein, UniProt P00748 20-615, looked up)
chain: IPPWEAPKEHKYKAEEHTVVLTVTGEPCHFPFQYHRQLYHKCTHKGRPGPQPWCATTPNFDQDQRWGYCLEPKKVKDHCSKHSPCQKGGTCVNMPSGPHCLCPQHLTGNHCQKEKCFEPQLLRFFHKNEIWYRTEQAAVARCQCKGPDAHCQRLASQACRTNPCLHGGRCLEVEGHRLCHCPVGYTGAFCDVDTKASCYDGRGLSYRGLARTTLSGAPCQPWASEATYRNVTAEQARNWGLGGHAFCRNPDNDIRPWCFVLNRDRLSWEYCDLAQCQTPTQAAPPTPVSPRLHVPLMPAQPAPPKPQPTTRTPPQSQTPGALPAKREQPPSLTRNGPLSCGQRLRKSLSSMTRVVGGLVALRGAHPYIAALYWGHSFCAGSLIAPCWVLTAAHCLQDRPAPEDLTVVLGQERRNHSCEPCQTLAVRSYRLHEAFSPVSYQHDLALLRLQEDADGSCALLSPYVQPVCLPSGAARPSETTLCQVAGWGHQFEGAEEYASFLQEAQVPFLSLERCSAPDVHGSSILPGMLCAGFLEGGTDACQGDSGGPLVCEDQAAERRLTLQGIISWGSGCGDRNKPGVYTDVAYYLAWIREHTVS
notes: signal peptide in the construct; also called factor XII; source: CHO-K1, transfected (pCMV6-XL5), purified from cell lysate (Ni-NTA agarose); not shown: His6, C-terminal, kept

Assays:
Conditions in all cases: both partners purified
human amyloid β1-42 = target: T3, human amyloid β1-42 (human, UniProt P05067 672-713); experiment: co-sedimentation; hAβ1-42 (200 nM) incubated with FXII or a mutant (20 nM) in PBS, 100 μl, 2 h at RT; Aβ1-42 aggregated; low-speed centrifugation; precipitates re-dissolved in 2% SDS and analysed with the supernatants by IB
T3 construct: amyloid β1-42, the peptide cut by secretases from the human Aβ precursor protein; numbers count on: the peptide; also called hAβ1-42; Aβ1-42; source: bought: Sigma-Aldrich (A9810)

[1] = target: B1; experiment: co-IP; purified proteins: hPEPD, an hPEPD mutant or mSRC at 40 nM incubated with a coagulation factor, FXII or an FXII mutant at 0.5 μM in PBS, 100 μl, 2 h at 37°C; then a specific primary antibody at 4°C overnight, IP by protein G-agarose, IB
153T-172Rdel-FXII = target: T1, 153T-172Rdel-FXII; experiment: as above
20I-50Pdel-FXII = target: T2, 20I-50Pdel-FXII; experiment: as above

binding result (human amyloid β1-42)	binding result [1]	binding result (153T-172Rdel-FXII)	binding result (20I-50Pdel-FXII)	Binder
binds	–	–	–	B1
–	binds	binds	binds	recombinant human prolidase (peptidase D, PEPD) (enzyme, UniProt P12955 1-493, looked up, human prolidase (peptidase D); also called hPEPD; source: recombinant, generated, purified and characterized as recently reported [7, 11]; not shown: His6, C-terminal, kept) MAAATGPSFWLGNETLKVPLALFALNRQRLCERLRKNPAVQAGSIVVLQGGEETQRYCTDTGVLFRQESFFHWAFGVTEPGCYGVIDVDTGKSTLFVPRLPASHATWMGKIHSKEHFKEKYAVDDVQYVDEIASVLTSQKPSVLLTLRGVNTDSGSVCREASFDGISKFEVNNTILHPEIVECRVFKTDMELEVLRYTNKISSEAHREVMKAVKVGMKEYELESLFEHYCYSRGGMRHSSYTCICGSGENSAVLHYGHAGAPNDRTIQNGDMCLFDMGGEYYCFASDITCSFPANGKFTADQKAVYEAVLRSSRAVMGAMKPGVWWPDMHRLADRIHLEELAHMGILSGSVDAMVQAHLGAVFMPHGLGHFLGIDVHDVGGYPEGVERIDEPGLRSLRTARHLQPGMVLTVEPGIYFIDHLLDEALADPARASFLNREVLQRFRGFGGVRIEEDVVVTDSGIELLTCVPRTVEEIEACMAGCDKAFTPFSGPK
